Values quoted from earlier work as cited in article PMC6451932.
pKd: −log10 of the molar value.

Target: fibrinogen β peptide (Fgβ) (Homo sapiens) (UniProt P02675)

SdrG (from UniProt Q9KI13)
pKd: 6.52
